We go through 2 molecules from article PMC9369236, “Unravelling the Adaptation Mechanisms to High Pressure in Proteins” (International Journal of Molecular Sciences, 2022).

Data set [1] concerns the target Phosphomannose isomerase from Thermococcus kodakarensis, expressed from pET-16b (Thermococcus kodakarensis). Nature of the data set: SEC; AKTA FPLC, XK50-60 column with 1 L Superdex 75 Prep-Grade resin, calibrated with the GE Healthcare Low Molecular Weight kit; elution at double the expected MW; self-association (dimer).
Data set [2] deals with the molecule itself. The data set is described as above.

In data set [1], “Phosphomannose isomerase from Thermococcus kodakarensis, expressed from pET-16b (enzyme)” yielded a stoichiometry N of 2.

B1: Phosphomannose isomerase from Thermococcus barophilus, expressed from pET-16b (enzyme)
chain: MKAEIKEFIDRGTYRKAPLFEGELPEGSYAQIVEIKPKQTVPKHYHEKQYELFYIISGQAKLGIEEREYDAKPGDIFLVKPKTVHWVVNKKEEPFRLFVIKLNYFGDDSVWLE
notes: Phosphomannose isomerase (PMI) of Thermococcus barophilus, gene TERMP_00744, synthetic codon-optimized gene; Construct for neutron scattering; removal of the tag is not mentioned; also called Tba PMI; PMI
Take B1: in data set [2], the “stoichiometry N” value came out at 2.
